Reference: patent US12060433B2, “CD73 inhibitor and A2A/A2B adenosine receptor inhibitor combination therapy” (Incyte Corporation, priority 2020, dated 2024)

Columns and labels:
[1] = target: T1, cell surface CD73 on A375 cells (Homo sapiens, UniProt P21589); test: Binding to cell surface CD73 by flow cytometry (GMFI), A375 cells; format: cell-based; details: moderate levels of surface CD73
T1 construct: endogenous in cells; host or cells: A375
T1 sequence (P21589 27-549): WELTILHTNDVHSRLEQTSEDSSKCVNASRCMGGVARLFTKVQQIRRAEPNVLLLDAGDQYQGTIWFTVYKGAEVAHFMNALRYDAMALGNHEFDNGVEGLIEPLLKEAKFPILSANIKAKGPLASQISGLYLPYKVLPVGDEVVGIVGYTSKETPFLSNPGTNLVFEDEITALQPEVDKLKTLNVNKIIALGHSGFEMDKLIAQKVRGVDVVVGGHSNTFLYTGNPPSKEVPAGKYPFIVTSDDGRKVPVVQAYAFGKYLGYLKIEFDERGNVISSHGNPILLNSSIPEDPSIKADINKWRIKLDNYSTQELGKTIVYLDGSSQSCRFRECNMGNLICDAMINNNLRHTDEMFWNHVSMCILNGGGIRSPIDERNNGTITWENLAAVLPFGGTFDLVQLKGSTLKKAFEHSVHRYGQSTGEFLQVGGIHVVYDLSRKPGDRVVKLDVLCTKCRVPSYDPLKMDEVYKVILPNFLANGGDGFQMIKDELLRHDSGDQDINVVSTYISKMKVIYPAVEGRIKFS
Experimental: (§1) To test the binding of humanized and non-humanized CL25 clones to cell surface CD73, MDA-MB-231 or A375 cells were washed and added to 96-well plates at 5×10^4 cells/well. The cells were stained with the indicated concentration of antibodies for 30 minutes on ice (FIG. 2A and FIG. 2B). Next, the cells were washed and stained using goat anti-mouse secondary conjugated to phycoerythrin (PE) for 30 minutes on ice. The cells were then washed and analyzed by flow cytometry. Geometric mean fluorescence intensity (GMFI) of CD73 staining was graphed (FIG. 2A and FIG. 2B).

[2] = test system: cynomolgus CD73 (SEQ ID NO: 72); test: SPR (Biacore 8K) binding affinity and kinetics to cynomolgus CD73
Experimental: The SPR running buffer (10 mM HEPES, 150 mM NaCl, 3 mM EDTA and 0.05% v/v Surfactant P20, pH 7.4) was prepared from 10×HBS-EP Buffer (GE Healthcare). Anti-human Fc antibodies (GE Healthcare) were immobilized via amine coupling on all sixteen flow cells of an S series sensor chip CM5 (GE Healthcare). The immobilization levels were ˜9000 RU for all flow cells. The desired capturing level of anti-CD73 antibody was achieved by flowing appropriate concentration of anti-CD73 antibody through the active flow cell of each channel. The non-cleavable ADP analogue APCP (adenosine-5′-(α,β-methylene) diphosphate) with the presence of Zn^2+ can be used to shift the CD73 conformational equilibrium from open towards closed. Therefore, recombinant CD73 was incubated with SPR running buffer in the presence of 100 μM APCP and 10 μM ZnCl2 (closed SPR running buffer) to study the binding of anti-CD73 antibody to the CD73 in the closed conformation. To achieve this, the ABA injection feature in Biacore 8K was used. For open conformation, the ABA injection sequence started with 60 seconds injection of running buffer. Then, CD73 3-fold serial dilution concentration series prepared from CD73 stock (BPS Bioscience) and running buffer were injected for 180 seconds immediately followed by running buffer for 240 seconds. For closed conformation, the normal SPR running buffer was replaced by closed SPR running buffer. Surface was regenerated with 30 seconds injection of 3 M MgCl2. […] Binding affinities and kinetic association and dissociation rate constants to human, cynomolgus, and mouse CD73 in either open or closed conformations are shown in Table 8 below. The results in Table 8 ensure cynomolgus pharmacokinetic data will reflect human pharmacokinetic data.
Binding affinities and kinetic association and dissociation rate constants to human, cynomolgus, and mouse CD73 in either open or closed conformations are shown in Table 9 below.

[3] = target: T2, cellular CD73 on A375 cells (Homo sapiens, UniProt P21589); test: Cellular CD73 inhibition (AMP-Glo), A375 cells; format: cell-based; details: 100 μM AMP, 3 hours
T2 construct: endogenous in cells; host or cells: A375
T2 sequence (P21589 27-549): T1 sequence (P21589 27-549)
Experimental: To measure ability of anti-CD73 antibody to inhibit CD73 activity on cells, A375 and MDA-MB-231 cells were washed with serum free RPMI media (ThermoFisher) and plated in 96-well plates at a concentration of 8×10^4 cells/well for A375 or 1×10^4 cells/well for MDA-MB-231. The cells were incubated with the indicated concentration of antibodies or APCP at 37° C. 5% C02 for 30 minutes (FIG. 3A, FIG. 3B, and FIG. 3C). Next, adenosine monophosphate (AMP) was added to a final concentration of 100 μM and cells were incubated an additional 3 hours at 37° C. 5% CO2. Plates were centrifuged for 1-2 minutes at 300 g and 25 μL of supernatant was transferred into a new 96-well plates. AMP-Glo Assay was used according to the manufacturer's instructions (Promega). Relative luminescence unit (RLU) is directly correlated with the AMP concentration in this assay. Results are depicted in FIG. 3A, FIG. 3B, and FIG. 3C. The ability of 3-[…] to inhibit CD73 activity on cells was evaluated as described in Example 3, above. Results are depicted in FIG. 8A and FIG. 8B.

[4] = target: T3, cell surface CD73 on MDA-MB-231 cells (Homo sapiens, UniProt P21589); test: Binding to cell surface CD73 by flow cytometry (GMFI), MDA-MB-231 cells; format: cell-based; details: high levels of surface CD73
T3 construct: endogenous in cells; host or cells: MDA-MB-231
T3 sequence (P21589 27-549): T1 sequence (P21589 27-549)
Experimental: as §1
Cells were stained with the indicated concentration of antibodies for 1 hour on ice. Cells were then washed and stained goat anti-mouse secondary conjugated to PE for 30 minute on ice. Cells were then washed and analyzed by flow cytometry. The GMFI of CD73 staining is graphed (FIG. 13).

[5] = cynomolgus CD73, closed conformation

cynomolgus CD73 (SEQ ID NO: 72), sequence (as listed by the source): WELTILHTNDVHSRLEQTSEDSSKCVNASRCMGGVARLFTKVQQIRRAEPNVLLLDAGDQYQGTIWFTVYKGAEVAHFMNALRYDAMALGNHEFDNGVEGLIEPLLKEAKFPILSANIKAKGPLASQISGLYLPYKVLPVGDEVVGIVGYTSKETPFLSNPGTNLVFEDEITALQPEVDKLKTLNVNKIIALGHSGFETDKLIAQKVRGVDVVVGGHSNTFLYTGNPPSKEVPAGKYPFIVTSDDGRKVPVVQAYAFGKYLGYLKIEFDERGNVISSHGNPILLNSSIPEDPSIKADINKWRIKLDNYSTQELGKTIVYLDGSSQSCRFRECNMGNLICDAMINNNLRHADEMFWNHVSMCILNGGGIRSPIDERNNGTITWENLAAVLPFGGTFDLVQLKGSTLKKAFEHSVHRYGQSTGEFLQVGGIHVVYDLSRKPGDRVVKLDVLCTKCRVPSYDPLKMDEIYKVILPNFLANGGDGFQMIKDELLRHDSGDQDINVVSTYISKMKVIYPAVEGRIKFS

B1: CL25: chimeric anti-human CD73 monoclonal antibody, murine VH SEQ ID NO:26 and VL SEQ ID NO:27 with human IgG1 Fc (antibody, V domains shown)
VH: QVQLQQSGAELARPGASVKLSCRASGYTFTSYGLSWVKQRTGQGLEWIGEIYPGSGNTYYNEKFKGKATLTADKSSSTAYMELRSLTSEDSAVYFCARYDYLGSSYGFDYWGQGTTLTVSS
VL: DIVMTQSHKFMSTSVGDRVSITCKASQDVSTAVAWYQQKPGQSPKLLIYSASYRYNGVPDRFTGSGSGTDFTFTISSVQAEDLAVYYCQQHYNTPYTFGGGTKLEIK
modifications: human IgG1 Fc constant regions without entry
Q: What does the source list for B1?
A: cell binding (GMFI) [1]: high potency binding; ka [2, 5]: 936000 M⁻¹ s⁻¹; kd [2, 5]: 0.000495 s⁻¹; kd ([2]; cynomolgus CD73, open conformation): 0.000658 s⁻¹; cellular CD73 inhibition [3]: good potency; cell binding (GMFI) [4]: high potency binding
